Numbering of substitutions follows the chain as printed.
Tests used:
Settings in all cases: protein: recombinant; tags: none stated (pET3a, untagged); label: 5'-32P; single strand
DinG D10A E12A [1] = target: T1, DinG D10A E12A (Bacillus subtilis, UniProt P54394 1-931, D10A;E12A); assay: EMSA; 3 mM Mg2+; C1, C2 and well complexes; EMSA, buffer D (composition not in material; 3 mM MgCl2, or 2 mM EDTA instead), 0.5 nM DNA, 37 °C, 10 min (text: 5 min), 15% native PAGE in TBE 1X; pH and salt
T1 sequence: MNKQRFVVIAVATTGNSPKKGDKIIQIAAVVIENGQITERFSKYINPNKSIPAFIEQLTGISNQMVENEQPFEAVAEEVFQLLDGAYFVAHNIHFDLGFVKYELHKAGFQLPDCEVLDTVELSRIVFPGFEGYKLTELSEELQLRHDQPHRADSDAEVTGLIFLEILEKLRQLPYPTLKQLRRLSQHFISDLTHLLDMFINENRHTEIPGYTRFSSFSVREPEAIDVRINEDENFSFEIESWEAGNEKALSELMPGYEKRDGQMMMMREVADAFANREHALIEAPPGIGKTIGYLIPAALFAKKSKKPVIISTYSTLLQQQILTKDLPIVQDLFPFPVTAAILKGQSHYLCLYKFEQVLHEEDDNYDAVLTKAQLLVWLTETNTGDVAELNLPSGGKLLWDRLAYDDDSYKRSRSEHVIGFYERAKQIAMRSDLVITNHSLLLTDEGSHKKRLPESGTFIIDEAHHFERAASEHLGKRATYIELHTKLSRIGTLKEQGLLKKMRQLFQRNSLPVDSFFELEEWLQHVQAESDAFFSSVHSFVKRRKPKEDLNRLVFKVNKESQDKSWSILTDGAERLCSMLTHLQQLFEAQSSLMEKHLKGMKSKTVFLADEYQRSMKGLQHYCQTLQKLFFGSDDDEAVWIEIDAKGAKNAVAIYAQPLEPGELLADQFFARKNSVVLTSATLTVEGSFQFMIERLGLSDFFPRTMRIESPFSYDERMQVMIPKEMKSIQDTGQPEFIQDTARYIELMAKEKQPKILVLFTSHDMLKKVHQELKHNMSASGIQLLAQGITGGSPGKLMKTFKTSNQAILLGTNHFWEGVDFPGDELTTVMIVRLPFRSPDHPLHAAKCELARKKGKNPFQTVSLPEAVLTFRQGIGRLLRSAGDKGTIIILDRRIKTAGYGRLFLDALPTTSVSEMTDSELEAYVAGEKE

DinG K290A = target: T2, DinG K290A (Bacillus subtilis, UniProt P54394 1-931, K290A); assay: EMSA; 2 mM EDTA, no metal; Kapp; text names lssDNA38, Methods and Fig S4 legend give lssDNA45; EMSA, buffer D (composition not in material; 3 mM MgCl2, or 2 mM EDTA instead), 0.5 nM DNA, 37 °C, 10 min (text: 5 min), 15% native PAGE in TBE 1X; pH and salt
T2 sequence: T1 sequence with A10D, A12E, K290A

DinG D10A E12A [2] = target: T1, DinG D10A E12A; assay: EMSA; 2 mM EDTA, no metal; text names lssDNA38, Methods and Fig S4 legend give lssDNA45; EMSA, buffer D (composition not in material; 3 mM MgCl2, or 2 mM EDTA instead), 0.5 nM DNA, 37 °C, 10 min (text: 5 min), 15% native PAGE in TBE 1X; pH and salt

B1: 3'-Biotin gamma32P-lssDNA45 (ssDNA)
DNA: GTACGTATTCAAGATACCTCGTACTCTGTACTGACTCGGATCCTA
modifications: biotin-T at position 44 (second from 3' end)
B1 was tested, and the binding signal (DinG D10A E12A [1]) was ~37 fold lower affinity than wt DinG, the “apparent K (half saturation)” value (DinG K290A) was roughly 1.1 nM and the binding signal (DinG D10A E12A [2]) was ~2 fold lower affinity than its Mg2+-bound state.
